Tests used:
[1] = target: T1, Recombinant human TNF-alpha (human, UniProt P01375 77-233); experiment: ELISA of unbound rhTNF-alpha after pre-incubation; printed as 4.095e-009 g/ml
[2] = target: T1, Recombinant human TNF-alpha; experiment: ELISA of unbound rhTNF-alpha after pre-incubation; printed as 6.116e-009 g/ml

T1 sequence (P01375 77-233): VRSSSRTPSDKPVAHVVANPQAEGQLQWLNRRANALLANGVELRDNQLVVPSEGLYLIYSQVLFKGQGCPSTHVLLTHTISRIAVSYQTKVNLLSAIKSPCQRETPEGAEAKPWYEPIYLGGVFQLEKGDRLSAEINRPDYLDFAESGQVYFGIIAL

IC50 [1] [ng/mL] | IC50 [2] [ng/mL] | Binder
4.09 | – | etanercept (ENBREL®), non-PEGylated (Fc fusion) LPAQVAFTPYAPEPGSTCRLREYYDQTAQMCCSKCSPGQHAKVFCTKTSDTVCDSCEDSTYTQLWNWVPECLSCGSRCSSDQVETQACTREQNRICTCRPGWYCALSKQEGCRLCAPLRKCRPGFGVARPGTETSDVVCKPCAPGTFSNTTSSTDICRPHQICNVVAIPGNASMDAVCTSTSPTRSMAPGAVHLPQPVSTRSQHTQPTPEPSTAPSTSFLLPMGPSPPAEGSTGDEPKSCDKTHTCPPCPAPELLGGPSVFLFPPKPKDTLMISRTPEVTCVVVDVSHEDPQVKFNWYVDGVQVHNAKTKPREQQYNSTYRVVSVLTVLHQNWLDGKEYKCKVSNKALPAPIEKTISKAKGQPREPQVYTLPPSREEMTKNQVSLTCLVKGFYPSDIAVEWESNGQPENNYKTTPPVLDSDGSFFLYSKLTVDKSRWQQGNVFSCSVMHEALHNHYTQKSLSLSPGK
– | 6.12 | PEG20-etanercept (10 eq) (Fc fusion, 20 KDa PEG (PEG20) conjugated via NHS-ester PEG reagent at 10 times molar excess; sites not stated) LPAQVAFTPYAPEPGSTCRLREYYDQTAQMCCSKCSPGQHAKVFCTKTSDTVCDSCEDSTYTQLWNWVPECLSCGSRCSSDQVETQACTREQNRICTCRPGWYCALSKQEGCRLCAPLRKCRPGFGVARPGTETSDVVCKPCAPGTFSNTTSSTDICRPHQICNVVAIPGNASMDAVCTSTSPTRSMAPGAVHLPQPVSTRSQHTQPTPEPSTAPSTSFLLPMGPSPPAEGSTGDEPKSCDKTHTCPPCPAPELLGGPSVFLFPPKPKDTLMISRTPEVTCVVVDVSHEDPQVKFNWYVDGVQVHNAKTKPREQQYNSTYRVVSVLTVLHQNWLDGKEYKCKVSNKALPAPIEKTISKAKGQPREPQVYTLPPSREEMTKNQVSLTCLVKGFYPSDIAVEWESNGQPENNYKTTPPVLDSDGSFFLYSKLTVDKSRWQQGNVFSCSVMHEALHNHYTQKSLSLSPGK

Source: patent US20140030278A1 (published 2014)
